The results in this text go back to patent US20190184026A1.

Holding throughout (assay): cell-based or functional assay
For test [1], the target named is CD3 (on T cells of human PBMCs) (human).
Another test has as its target human GLP-1R (human) (UniProt P43220).
Test [2] concerns the target lactating receptors of the Nb2 cells (rat) (UniProt P05710).

lactating receptors of the Nb2 cells (rat), sequence (P05710 20-610): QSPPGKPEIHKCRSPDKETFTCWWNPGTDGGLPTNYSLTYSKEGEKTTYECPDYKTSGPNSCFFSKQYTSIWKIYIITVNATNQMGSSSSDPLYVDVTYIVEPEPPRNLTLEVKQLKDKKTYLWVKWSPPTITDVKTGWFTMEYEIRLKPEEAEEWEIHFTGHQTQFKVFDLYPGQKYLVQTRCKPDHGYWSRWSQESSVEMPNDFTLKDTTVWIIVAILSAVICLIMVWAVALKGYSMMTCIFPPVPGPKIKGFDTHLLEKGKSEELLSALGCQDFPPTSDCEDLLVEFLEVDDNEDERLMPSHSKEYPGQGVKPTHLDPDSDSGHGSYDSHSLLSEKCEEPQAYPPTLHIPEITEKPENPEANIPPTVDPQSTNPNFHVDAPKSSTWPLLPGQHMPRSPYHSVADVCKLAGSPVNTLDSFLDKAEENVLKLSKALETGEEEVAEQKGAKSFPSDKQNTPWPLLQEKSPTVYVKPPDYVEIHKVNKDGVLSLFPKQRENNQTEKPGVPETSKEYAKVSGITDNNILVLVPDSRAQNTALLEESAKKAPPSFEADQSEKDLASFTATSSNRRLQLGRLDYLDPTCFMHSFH
human GLP-1R (human), sequence (P43220 24-463): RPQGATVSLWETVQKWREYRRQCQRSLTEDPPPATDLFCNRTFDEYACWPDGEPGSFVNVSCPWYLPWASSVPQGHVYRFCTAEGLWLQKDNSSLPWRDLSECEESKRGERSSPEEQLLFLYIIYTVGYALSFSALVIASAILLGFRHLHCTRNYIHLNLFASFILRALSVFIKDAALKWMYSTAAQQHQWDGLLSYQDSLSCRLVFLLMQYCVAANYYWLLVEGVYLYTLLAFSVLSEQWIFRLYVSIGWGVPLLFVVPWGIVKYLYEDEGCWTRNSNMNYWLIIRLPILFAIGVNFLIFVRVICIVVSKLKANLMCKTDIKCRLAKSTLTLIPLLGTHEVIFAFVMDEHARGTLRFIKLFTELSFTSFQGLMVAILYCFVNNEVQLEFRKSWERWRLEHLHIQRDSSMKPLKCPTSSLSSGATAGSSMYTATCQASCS

With anti-CD3 monoclonal antibody OKT3, the EC50 of activation of human PBMCs (CCK-8, absorbance at 492 nM) in test [1] worked out at 0.015 nM.

Substance “duraglutide (Eli Lilly, Cat. No. 9301897) (Fc fusion)” returned an in vitro activity EC50 (CRE-Luc reporter, CHO-K1 cells with human GLP-1R) with human GLP-1R (human) of 0.0299 nM. For the substance “hGH (from UniProt P01241 27-217) (ligand)”, in test [2], the EC50 (Nb2 cell proliferation, CCK-8) amounted to 0.00694 nM.
